# T1: human iRhom2, endogenously expressed (human, UniProt Q6PJF5 1-856)
# T1 sequence: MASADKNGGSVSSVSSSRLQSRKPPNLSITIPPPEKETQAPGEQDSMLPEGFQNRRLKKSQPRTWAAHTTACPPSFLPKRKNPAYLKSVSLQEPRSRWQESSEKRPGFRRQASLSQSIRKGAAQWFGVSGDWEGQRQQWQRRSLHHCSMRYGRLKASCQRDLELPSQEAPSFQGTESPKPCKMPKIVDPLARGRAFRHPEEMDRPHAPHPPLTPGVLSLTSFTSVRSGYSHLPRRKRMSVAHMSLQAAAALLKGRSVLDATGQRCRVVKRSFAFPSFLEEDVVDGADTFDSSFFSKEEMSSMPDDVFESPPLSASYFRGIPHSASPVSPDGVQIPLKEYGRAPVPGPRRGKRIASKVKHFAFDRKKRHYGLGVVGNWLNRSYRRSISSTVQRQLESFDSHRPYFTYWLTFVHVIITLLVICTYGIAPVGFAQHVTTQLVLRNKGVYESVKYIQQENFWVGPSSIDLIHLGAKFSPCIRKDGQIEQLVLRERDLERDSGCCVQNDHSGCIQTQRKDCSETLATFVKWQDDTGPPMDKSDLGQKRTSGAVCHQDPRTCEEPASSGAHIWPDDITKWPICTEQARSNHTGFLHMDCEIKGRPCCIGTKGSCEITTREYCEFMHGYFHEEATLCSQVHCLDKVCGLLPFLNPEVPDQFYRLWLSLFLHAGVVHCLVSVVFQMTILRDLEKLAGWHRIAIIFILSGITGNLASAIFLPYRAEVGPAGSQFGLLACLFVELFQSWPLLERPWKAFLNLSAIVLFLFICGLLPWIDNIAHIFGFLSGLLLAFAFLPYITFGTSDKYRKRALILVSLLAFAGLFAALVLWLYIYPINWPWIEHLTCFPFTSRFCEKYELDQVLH
# T2: dog iRhom2 full length wild type, T7-tagged (dog, UniProt Q00M95 1-827)
# T2 construct: whole, on cells; on MEF-DKO cells; also called Dog-iR2-FL-WT-T7
# T2 sequence: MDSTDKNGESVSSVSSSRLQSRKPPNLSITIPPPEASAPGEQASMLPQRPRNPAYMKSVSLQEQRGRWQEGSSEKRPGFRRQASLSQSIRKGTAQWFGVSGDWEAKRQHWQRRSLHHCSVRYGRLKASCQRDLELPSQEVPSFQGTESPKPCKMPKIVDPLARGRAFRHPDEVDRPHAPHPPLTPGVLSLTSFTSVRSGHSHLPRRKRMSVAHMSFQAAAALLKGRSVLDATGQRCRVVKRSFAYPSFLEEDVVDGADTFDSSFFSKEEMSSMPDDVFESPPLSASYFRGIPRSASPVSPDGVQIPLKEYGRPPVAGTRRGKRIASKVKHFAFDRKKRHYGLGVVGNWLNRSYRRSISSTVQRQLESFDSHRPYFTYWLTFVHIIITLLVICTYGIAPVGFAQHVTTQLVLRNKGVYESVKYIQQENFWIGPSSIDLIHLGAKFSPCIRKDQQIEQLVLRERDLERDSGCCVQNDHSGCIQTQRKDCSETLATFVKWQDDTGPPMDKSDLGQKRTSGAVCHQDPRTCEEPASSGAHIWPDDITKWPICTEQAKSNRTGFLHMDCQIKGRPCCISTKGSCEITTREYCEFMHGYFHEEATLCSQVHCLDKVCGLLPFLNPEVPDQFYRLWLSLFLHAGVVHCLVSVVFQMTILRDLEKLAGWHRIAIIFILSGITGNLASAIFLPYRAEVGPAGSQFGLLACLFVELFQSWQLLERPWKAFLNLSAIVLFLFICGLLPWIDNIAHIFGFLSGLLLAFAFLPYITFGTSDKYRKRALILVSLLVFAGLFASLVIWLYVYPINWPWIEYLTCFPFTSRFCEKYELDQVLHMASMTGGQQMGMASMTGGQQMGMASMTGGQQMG
# T3: human iRhom1, endogenously expressed (human, UniProt Q96CC6 1-855)
# T3 construct: also called iRhom1 on RH-30 cells
# T3 sequence: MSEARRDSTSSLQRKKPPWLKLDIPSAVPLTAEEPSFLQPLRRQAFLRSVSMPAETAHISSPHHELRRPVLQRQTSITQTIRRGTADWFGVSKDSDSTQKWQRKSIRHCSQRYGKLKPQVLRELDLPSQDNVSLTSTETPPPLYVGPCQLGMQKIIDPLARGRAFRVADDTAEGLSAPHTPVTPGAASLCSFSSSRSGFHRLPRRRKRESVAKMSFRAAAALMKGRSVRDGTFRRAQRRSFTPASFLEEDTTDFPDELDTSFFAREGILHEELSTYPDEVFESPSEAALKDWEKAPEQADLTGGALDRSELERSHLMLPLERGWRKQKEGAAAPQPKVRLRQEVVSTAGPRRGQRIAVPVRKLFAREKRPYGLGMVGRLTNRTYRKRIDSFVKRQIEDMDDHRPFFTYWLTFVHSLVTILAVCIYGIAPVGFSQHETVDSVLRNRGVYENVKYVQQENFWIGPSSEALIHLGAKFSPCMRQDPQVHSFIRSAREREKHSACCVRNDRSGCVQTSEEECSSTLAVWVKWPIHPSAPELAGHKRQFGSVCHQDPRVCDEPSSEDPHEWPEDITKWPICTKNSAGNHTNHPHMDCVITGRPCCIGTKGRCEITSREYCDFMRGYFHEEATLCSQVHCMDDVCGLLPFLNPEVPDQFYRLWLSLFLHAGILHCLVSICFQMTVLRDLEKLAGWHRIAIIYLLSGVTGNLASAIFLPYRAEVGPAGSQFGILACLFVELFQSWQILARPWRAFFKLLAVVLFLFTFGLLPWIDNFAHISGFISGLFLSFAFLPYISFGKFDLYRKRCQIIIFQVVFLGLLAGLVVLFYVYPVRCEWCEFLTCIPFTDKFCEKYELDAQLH
# Legend:
# [1] = molecular target: T1, human iRhom2, endogenously expressed; assay: cell-based or functional assay
# [2] = molecular target: T2, dog iRhom2 full length wild type, …; assay: FACS on MEF-DKO-iR2 Dog cells, 3 µg/ml
# Protocol: In brief, immortalized MEF-DKO-EV control cells, MEF-DKO-rhesus-iR2-FL-WT-T7 cells, MEF-DKO-cyno-iR2-FL-WT-T7 cells, MEF-DKO-dog-iR2-FL-WT-T7 cells and MEF-DKO-rabbit-iR2-FL-WT-T7 cells, as well as their respective iRhom1 counterparts, were harvested with 10 mM EDTA in PBS, washed and resuspended in FACS buffer (PBS, 3% FBS, 0.05% sodium azide), and seeded in Nunc U-bottom 96-well plates (Thermo Fisher Scientific, USA) at approximately 3×10⁵ cells per well. To pellet cells and remove supernatants, the plates were centrifuged at 1,500 rpm and 4° C. for 3 minutes. For primary staining, cells were resuspended in 100 μl per well of either FACS buffer alone (controls), mouse monoclonal anti-T7 IgG (Merck Millipore, USA) at 3 μg/ml FACS buffer or the antibodies of the invention also at 3 μg/ml FACS buffer and incubated on ice for 1 hour.
# Afterwards, plates were centrifuged at 1,500 rpm and 4° C. for 3 minutes and washed twice with 200 μl per well of FACS buffer. For secondary staining, cells were spun down and resuspended in 100 μl per well of PE-conjugated goat anti-mouse IgG F(ab′)2 detection fragment (Dianova, Germany) diluted 1:100 in FACS buffer. Protected from light, the cell suspensions were incubated on ice for 1 hour. […] Finally, cells were resuspended in 150 μl per well of FACS buffer and analyzed using a BD Accuri™ C6 Plus flow cytometer (Becton Dickinson, Germany).
# [3] = molecular target: T3, human iRhom1, endogenously expressed; assay: FACS on RH-30 cells (iRhom1-positive, not iRhom2-positive)
Binder,"LPS-induced TNFα release from PBMCs of rheumatoid arthritis patients, percent inhibition, 1 µg/ml, chimeric antibody [1] [%]","PMA-induced HB-EGF release from PBMCs of rheumatoid arthritis patients, percent inhibition, 1 µg/ml, chimeric antibody [1] [%]","PMA-induced HB-EGF release from THP-1 cells, percent inhibition, 3 µg/ml [1] [%]","PMA-induced HB-EGF release from U-937 cells, percent inhibition [1] [%]","PMA-induced IL-6R release from PBMCs of rheumatoid arthritis patients, percent inhibition, 1 µg/ml, chimeric antibody [1] [%]","PMA-induced IL-6R release from U-937 cells, percent inhibition, 3 µg/ml [1] [%]","PMA-induced TNFα release from U-937 cells, percent inhibition, 3 µg/ml [1] [%]",binding result [2],binding result [3]
"chimeric antibody 16 (antibody, V domains shown, chimeric version of clone #16, made in CHO cells, detected with anti-human IgG; also called ch16; chl6 (so in the source)) VH: QVTLKESGPGILQPSQTLSLTCSFSGFSLSTFALGVGWIRQPSGRGLEWLAHIWWDDDKYYNPALKSRLTISKDTSKNHVFLKIANVDTADTATYYCARITTYYYGMDYWGQGTSVTVSS VL: DIVLSQSPATLSVTPGDSVSLFCRASQSIGNHLHWYQQESHASPRLLIKYASQSISGIPSRFSGSGSGTDFTLSINSVETEDFGMYFCQQSYNWPLTFGAGTKLELK",83.6,66,73.6,101,72.3,84.3,93.7,binds,no binding (tested: 3 µg/ml)
"chimeric antibody 22 (antibody, V domains shown) VH: QVTLKESGPGILQPSQTLSLTCSFSGFSLSTFGMGVGWIRQPSGKGLEWLAHIWWDDEKYYNSALKSRLTISKATSKNQVFLKIANVDTADTATYYCARISNYGSNYWYFNVWGTGTTVTVSS VL: QVVLTQSPALMSASPGEKVTMTCSAGSSVSYMYWYQQKPGSSPRVLIYDTSNLASGVPARFTGSGSGTSYSLTISRMEAEDAATYYCQQWNSYPLTFGAGTKLELK",76.5,54.7,81.9,103,61.1,85.6,96.5,,
"chimeric antibody 42 (antibody, V domains shown) VH: QVTLKESGPGILQPSQTLSLTCSLSGFSLSTFGRGVGWIRQPSGKGLEWLAHIWWDDEKYYNPALKSRLTISKDTSKNQVFLRIANVDTADTATYYCARIQNYGSNYWYFDVWGTGTTVTVSS VL: LIVLTQSPAIMSASPGEKVTMTCGATSRISYMFWYQQKPGSSPRVLIYDTSNLASGVPVRFSGSGSGTSYSLTISRVEAEDVATYYCQQWNSYPLTFGAGTKLELK",82.1,76.1,80.8,103,73.5,91.8,96.5,,
"chimeric antibody 44 (antibody, V domains shown) VH: QVTLKESGPGILQPSQTLSLTCSFSGFSLSTFGMGVGWIRQPSEKGLEWLAHIWWDDDKYYNPALKSRLTISKDTSKNQIFLKITNVDTAETATYYCSRIGNYGSNYWYFDVWGTGTTVTVSS VL: QIVLTQSPAVMSASPGEKVTMTCTASSSVYYMYWYQQTPGSSPRLLIYDTSNLASGVPVRFSGSGSGTSYSLTISRMEAEDAATYYCQQWNTYPLTFGAGTKLELK",70.2,37.8,70.7,99.2,53.1,85.2,89.2,,
"chimeric antibody 34 (antibody, V domains shown) VH: QVTLKESGPGILQPSQTLSLTCSFSGFSLSTFSLGVGWIRQSSGKGLEWLAHIWWDDEKYYNPALKSRLTISKDTSKNQVFLKIANVDAADTATYYCARAYYSKSYYALDYWGQGTSVTVSS VL: DIQMTQSPSSLSASLGERVSLTCRASQEISGYLSWLQQKPDGTIKRLIYAASTLDSGVPKRFSGSRSGSDYSLAISSLESEDFADYYCLQYANFPFTFGSGTKLEIK",66.6,30.6,76.1,98.1,45.6,82.8,87.4,,

# — patent publication US20240287172A1 (SCIRHOM, published 2024)
